Measurements taken from patent US20110086806A1 (published 2011).
Substitutions are numbered along the chain they refer to. In names and notes the source's numbering stands.

T1: recombinant human IL-23R/Fc chimera (R&D Systems) (human, UniProt Q5VWK5 24-355)
T1 construct: Bought; also called rhIL23RFc
T1 sequence (looked up): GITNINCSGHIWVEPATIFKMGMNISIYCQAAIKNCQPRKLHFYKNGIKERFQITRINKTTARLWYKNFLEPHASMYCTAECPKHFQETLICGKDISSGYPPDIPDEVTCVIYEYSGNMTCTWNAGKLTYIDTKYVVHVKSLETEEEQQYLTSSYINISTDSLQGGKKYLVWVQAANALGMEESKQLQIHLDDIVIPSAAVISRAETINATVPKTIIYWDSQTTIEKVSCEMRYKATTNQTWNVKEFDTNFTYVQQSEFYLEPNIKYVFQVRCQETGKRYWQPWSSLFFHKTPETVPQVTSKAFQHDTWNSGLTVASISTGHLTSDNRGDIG

T2: recombinant human IL-12Rβ2/Fc fusion protein (R&D Systems) (human, UniProt Q99665 24-622, limits assumed)
T2 construct: Bought; also called Il12Rb2
T2 sequence: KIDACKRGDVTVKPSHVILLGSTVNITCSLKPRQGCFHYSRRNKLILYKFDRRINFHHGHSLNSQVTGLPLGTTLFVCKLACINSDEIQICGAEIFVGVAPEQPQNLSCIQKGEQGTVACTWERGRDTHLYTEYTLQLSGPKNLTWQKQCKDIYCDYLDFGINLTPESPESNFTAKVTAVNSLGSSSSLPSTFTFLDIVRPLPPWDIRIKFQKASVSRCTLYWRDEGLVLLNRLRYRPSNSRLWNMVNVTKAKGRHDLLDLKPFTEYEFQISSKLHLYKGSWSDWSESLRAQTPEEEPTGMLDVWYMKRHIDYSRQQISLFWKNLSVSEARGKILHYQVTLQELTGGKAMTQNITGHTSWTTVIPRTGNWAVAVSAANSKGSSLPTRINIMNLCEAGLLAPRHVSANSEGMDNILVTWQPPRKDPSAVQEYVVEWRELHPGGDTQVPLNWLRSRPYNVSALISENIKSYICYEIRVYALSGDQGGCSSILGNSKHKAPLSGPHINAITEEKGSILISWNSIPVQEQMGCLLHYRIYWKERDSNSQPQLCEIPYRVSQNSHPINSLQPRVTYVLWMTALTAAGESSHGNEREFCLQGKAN

B1: 101-54-4B6 ATRIMER complex (designed binder)
chain: EPPTQKPKKIVNAKKDVVNTKMFEELKSRLDTLAQEVALLKEQQALQTVCLKGTKVHMKCFLAFTQTKTFHEASEDCISRGGTLSTPQTGSENDALYEYLRQSVGNEAEIWLGLNGSALTNTWVDMTGARIAYKNWEPPGPHHPMGGFGVFGENCAVLSGAANGKWFDKRCRDQLPYICQFGIV
B2: 105-08-1A8 ATRIMER complex (designed binder)
chain: B1 chain with A118P, L119R, P138T, P139E, G140I, P141T, H142A, H143Q, M145D
B3: 101-51-1A7 ATRIMER complex (designed binder)
chain: B1 chain with P138R, G140P, P141L, H142Y, H143Q, M145G, F148W
modifications: Forms a homotrimer through the tetranectin coiled coil; one protomer is given.
notes: not shown: C-terminal tag: His/Myc (pANA4) or HA-StrepII (pANA10)
B4: 101-51-1A4 ATRIMER complex (designed binder)
chain: B1 chain with P138R, G140A, P141L, H142V, H143Q, M145R
modifications: Forms a homotrimer through the tetranectin coiled coil; one protomer is given.
notes: as for B3
B5: 101-113-6C108 ATRIMER complex (designed binder)
chain: B1 chain with G140P
modifications: Forms a homotrimer through the tetranectin coiled coil; one protomer is given.
notes: as for B3
B6: 056-53.H1G ATRIMER complex (designed binder)
chain: EPPTQKPKKIVNAKKDVVNTKMFEELKSRLDTLAQEVALLKEQQALQTVCLKGTKVHMKCFLAFTQTKTFHEASEDCISRGGTLSTPQTGSENDALYEYLRQSVGNEAEIWLGLNSGHWRAVWVDMTGARIAYKNWETEITAQPDGGFGVFGENCAVLSGAANGKWFDKRCRDQLPYICQFGIV
modifications: Homotrimer of this chain (ATRIMER complex).
notes: not shown: A possible extra N-terminal Ser from the ompA junction is left out
B7: 056-53.H7B ATRIMER complex (designed binder)
chain: B6 chain with S116A, H118R, W119M, R120G, A121L, F148W
modifications: non-covalent homotrimer of the one chain given
notes: not shown: Also the single Ser the vector leaves after the ompA signal
B8: 056-53.H7H ATRIMER complex (designed binder)
chain: B6 chain with S116G, G117S, H118S, W119V, R120S, A121D, V150Y
modifications: Homotrimer of this chain (ATRIMER complex).
notes: as for B6
B9: H4E E137A ATRIMER complex (designed binder)
chain: B1 chain with E137A, P138T, P139E, G140I, P141T, H142A, H143Q, M145D

Target: T1, recombinant human IL-23R/Fc chimera …
Experiment: competition ELISA vs IL-23

| Ratio IC50 to 056-53.H4E IC50 | Binder |
| --- | --- |
| 0.3 | B1 |
| 1.6 | B2 |
| 1 | B3 |
| 1 | B4 |
| 0.9 | B5 |

Target: T1, recombinant human IL-23R/Fc chimera …
Experiment: SPR
Outline: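 Recombinant human IL-23R/Fc captured on anti-human IgG Fc CM5 surface (<200 RU); ATRIMER complexes at 1-500 nM injected at 30 μl/min, 3 min association and 5 min dissociation. Kinetic constants fitted from double-referenced sensorgrams.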

| Ka [M⁻¹] | Kd [nM] | koff [s⁻¹] | kon [M⁻¹ s⁻¹] | Binder |
| --- | --- | --- | --- | --- |
| 1.95e+08 | 5.13 | 0.000489 | 95200 | B6 |
| 1.76e+09 | 0.569 | 0.00039 | 687000 | B1 |
| 2.14e+09 | 0.467 | 0.000344 | 737000 | B2 |
| 2.24e+09 | 0.447 | 0.000187 | 419000 | B3 |
| 2.58e+09 | 0.388 | 0.000395 | 1.02e+06 | B4 |
| 1.8e+09 | 0.557 | 0.00024 | 431000 | B7 |
| 6.65e+08 | 1.5 | 0.000385 | 256000 | B8 |
| 1.63e+09 | 0.613 | 0.000382 | 623000 | B5 |

Target: T3, recombinant human IL-12Rβ1/Fc fusion protein (R&D Systems) (human, UniProt P42701 24-540, limits assumed)
T3 construct: Bought; also called Il12Rb1
Experiment: SPR
Procedure: (§1) A Biacore 3000 biosensor (GE Healthcare) was used to evaluate the interaction of human IL-12Rβ1/Fc or IL-12Rβ2/Fc with IL-23R binding ATRIMER™ complexes. Immobilization of an anti-human IgG Fc antibody (GE Healthcare) to the CM5 chip (GE Healthcare) was performed using standard amine coupling chemistry, and this modified surface was used to capture recombinant human IL-12Rβ1/Fc or IL-12Rβ2/Fc fusion protein (R&D Systems). A low-density receptor surface, less than 200 RU, was used for all of the analyses. ATRIMER™ complex dilutions (100 nM) were injected over the IL-12R surface at 30 μl/min. Data collection was 3 minutes for the association and 5 minutes for dissociation. The anti-human IgG surface was regenerated with a 30s pulse of 3M magnesium chloride. All sensorgrams were double-referenced against an anti-human IgG Fc antibody surface as well as buffer injections.

| binding result | Binder |
| --- | --- |
| no binding (tested: 100 nM) | B1 |
| no binding (tested: 100 nM) | B2 |
| no binding (tested: 100 nM) | B3 |
| no binding (tested: 100 nM) | B4 |
| no binding (tested: 100 nM) | B9 |
| no binding (tested: 100 nM) | B5 |

Target: T2, recombinant human IL-12Rβ2/Fc fusion …
Experiment: SPR
Procedure: as §1

| binding result | Binder |
| --- | --- |
| no binding (tested: 100 nM) | B1 |
| no binding (tested: 100 nM) | B2 |
| no binding (tested: 100 nM) | B3 |
| no binding (tested: 100 nM) | B4 |
| no binding (tested: 100 nM) | B9 |
| no binding (tested: 100 nM) | B5 |

Target: T1, recombinant human IL-23R/Fc chimera …
Experiment: competition ELISA vs IL-23
Remark: another data set of the same source
Procedure: Assays were performed generally as follows. Individual wells in Immulon HB2 plates were incubated overnight at 4° C. with 100 μL PBS containing 100 ng of an anti-human IgG Fc (R&D MAB 110 clone 97924). Plates were washed five times with PBS/0.05% Tween 20, and wells were incubated for 1.5 h at RT with 100 μL each of PBS containing 50 ng of recombinant human IL-23R/Fc. […] Competitor was included at a final concentration of 1 μg/mL. After incubation, plates were washed as described and wells were incubated for 40 min at RT with 100 μL each of PBS containing a 1:5000 dilution of streptavidin-HRP conjugate (Pierce catalog no. 21130). After washing, wells were incubated with 100 μL each of TMB (BioFX Lab catalog no. TMBH-1000-0) for up to 30 min at RT. Reactions were stopped with an equal volume of 0.2 M sulfuric acid.
A number of ATRIMER™ polypeptide complexes were tested in competition ELISA more extensively to determine IC50 values.

| IC50 [nM] | Binder |
| --- | --- |
| 3.75 | B6 |
| 0.9 | B7 |
| 0.53 | B8 |
